tested on: Escherichia coli TOP10; experiment: shrunken log2 fold change of peptide-encoding DNA abundance (4.5 h post-induction vs induction); higher = less antimicrobial activity (less host growth inhibition); details: time post-induction: 4.5 h; library: site-saturation at positions 5, 18, 19, 20
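Note: peptides expressed intracellularly from a pBAD plasmid library in pooled LB shake-flask culture, induced with 0.3% L-arabinose, DNA abundance read by NGS, three biological replicates, DESeq2 with apeglm shrinkage.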

Sequence	shrunken log2 fold change
RRIRRRPPRLPRPRPRPYMEPRP	-0.0924
RRIRMRPPRLPRPRPRPVTWPRP	0.216
RRIRFRPPRLPRPRPRPALSPRP	0.319
RRIRTRPPRLPRPRPRPFEKPRP	-0.0979
RRIRLRPPRLPRPRPRPFGVPRP	0.028
RRIRPRPPRLPRPRPRPQYYPRP	-0.422
RRIRMRPPRLPRPRPRPSKEPRP	0.203
RRIRMRPPRLPRPRPRPDHAPRP	0.0825
RRIRMRPPRLPRPRPRPIKYPRP	0.188
RRIRIRPPRLPRPRPRPTQNPRP	0.19
RRIRFRPPRLPRPRPRPEHIPRP	-0.161
RRIRFRPPRLPRPRPRPGGHPRP	-0.00918
RRIRGRPPRLPRPRPRPVLHPRP	-0.0969
RRIRHRPPRLPRPRPRPASLPRP	-0.0081
RRIRQRPPRLPRPRPRPFFYPRP	-0.257
RRIRGRPPRLPRPRPRPITLPRP	0.217
RRIRSRPPRLPRPRPRPSPAPRP	0.242
RRIRERPPRLPRPRPRPPIGPRP	-0.144
RRIRWRPPRLPRPRPRPFAAPRP	0.862
RRIRHRPPRLPRPRPRPNTFPRP	-0.00529
RRIRLRPPRLPRPRPRPHDIPRP	-0.618
RRIRGRPPRLPRPRPRPSLAPRP	1.09
RRIRTRPPRLPRPRPRPDWPPRP	0.135
RRIRTRPPRLPRPRPRPMCHPRP	-0.228
RRIRLRPPRLPRPRPRPPPKPRP	1.8

Sequence	shrunken log2 fold change
RRIRVRPPRLPRPRPRPYSRPRP	-0.0134
RRIRFRPPRLPRPRPRPFAMPRP	-0.326
RRIRMRPPRLPRPRPRPMFVPRP	-0.298
RRIRIRPPRLPRPRPRPHHAPRP	0.0597
RRIRCRPPRLPRPRPRPDKLPRP	0.0152
RRIRRRPPRLPRPRPRPDWDPRP	-0.0829
RRIRWRPPRLPRPRPRPTTMPRP	-0.0212
RRIRMRPPRLPRPRPRPCFDPRP	0.0386
RRIRHRPPRLPRPRPRPHMVPRP	-1.01
RRIRWRPPRLPRPRPRPAGRPRP	0.695
RRIRVRPPRLPRPRPRPPMWPRP	0.303
RRIRIRPPRLPRPRPRPMWNPRP	-0.472
RRIRFRPPRLPRPRPRPWYCPRP	-0.706
RRIRCRPPRLPRPRPRPWDGPRP	0.0877
RRIRQRPPRLPRPRPRPAFGPRP	0.171
RRIRRRPPRLPRPRPRPLCMPRP	-0.126
RRIRIRPPRLPRPRPRPYRFPRP	-0.636
RRIRQRPPRLPRPRPRPPFKPRP	-0.0455
RRIRVRPPRLPRPRPRPYNVPRP	-0.0185
RRIRSRPPRLPRPRPRPCKNPRP	-0.283
RRIRTRPPRLPRPRPRPHSMPRP	-0.665
RRIRARPPRLPRPRPRPKKKPRP	0.119
RRIRGRPPRLPRPRPRPPPVPRP	1.25
RRIRRRPPRLPRPRPRPEQSPRP	0.353
RRIRFRPPRLPRPRPRPTLEPRP	0.197

Sequence	shrunken log2 fold change
RRIRWRPPRLPRPRPRPDHAPRP	0.391
RRIRFRPPRLPRPRPRPYFGPRP	-1.15
RRIRARPPRLPRPRPRPEFEPRP	0.75
RRIRGRPPRLPRPRPRPWFWPRP	0.6
RRIRRRPPRLPRPRPRPWRNPRP	0.0985
RRIRPRPPRLPRPRPRPQLVPRP	0.0126
RRIRARPPRLPRPRPRPKVSPRP	0.669
RRIRCRPPRLPRPRPRPLRMPRP	0.461
RRIRKRPPRLPRPRPRPRTQPRP	0.605
RRIRARPPRLPRPRPRPEYLPRP	-0.00441
RRIRERPPRLPRPRPRPEHSPRP	-0.312
RRIRLRPPRLPRPRPRPQRPPRP	0.265
RRIRRRPPRLPRPRPRPPHLPRP	0.52
RRIRCRPPRLPRPRPRPWLIPRP	-0.564
RRIRFRPPRLPRPRPRPQVNPRP	-0.0623
RRIRGRPPRLPRPRPRPHIHPRP	-0.0259
RRIRGRPPRLPRPRPRPWDVPRP	-0.00788
RRIRCRPPRLPRPRPRPETEPRP	-0.0921
RRIRYRPPRLPRPRPRPDGEPRP	-0.159
RRIRGRPPRLPRPRPRPELSPRP	0.169
RRIRNRPPRLPRPRPRPRVCPRP	0.205
RRIRFRPPRLPRPRPRPIFGPRP	0.449
RRIRGRPPRLPRPRPRPFPVPRP	0.291
RRIRGRPPRLPRPRPRPNMSPRP	0.161
RRIRFRPPRLPRPRPRPTYMPRP	-0.0541
